Source: patent publication US10336832

B1: M28-F01 (Fab, V domains shown)
VH: EVQLLESGGGLVQPGGSLRLSCAASGFTFSVYLMHWVRQAPGKGLEWVSGISPSGGYTQYADSVKGRFTISRDNSKNTLYLQMNSLRAEDTAVYYCARPGGLDAFDIWGQGTMVTVSS
VL: DIQMTQSPSSLSASVGDRVTITCRASQSINTYLNWYQQKPGKAPKVLIHAASTLESGVPSRFSGSGSGTDFTLTISSLQPEDFATYYCQQSYSTPPTFGQGTKVEIK
B2: M29-E02 (Fab, V domains shown)
VH: EVQLLESGGGLVQPGGSLRLSCAASGFTFSRYPMMWVRQAPGKGLEWVSVIYPSGGDTFYADSVKGRFTISRDNSKNTLYLQMNSLRAEDTAVYYCASGDDYLWEAAVYWGQGTLVTVSS
VL: QSVLTQPPSVSEAPRQRVTISCSGSSSNIGNNAVSWYQQLPGKAPKLLIYYDDLLPSGVSDRFSGSKSGTSASLAISGLRSEDEADYYCAAWDDSLNGFVFGTGTKVTVL
B3: X101-A01 (antibody, V domains shown)
VH: EVQLLESGGGLVQPGGSLRLSCAASGFTFSHYLMTWVRQAPGKGLEWVSYISPSGGHTIYADSVKGRFTISRDNSKNTLYLQMNSLRAEDTAVYYCARVARGIAARSRTSYFDYWGQGTLVTVSS
VL: EIVLTQSPGTLSLSPGERATLSCRTSQFVNSNYLAWYQQKPGQAPRLLIYGASSRATGIPDRFSGSGSGTDFTLTISRLEPEDFAVYYCQQSSRTPWTFGQGTKVEIK

Assays:
[1] = target: human plasma kallikrein (active form, purified from human plasma and activated with factor XIIa) (human) (UniProt P03952); test: ELISA, target/background
Sequence of human plasma kallikrein (active form, purified from human plasma and activated with factor XIIa) (human) (P03952 20-390 limits assumed, chain 1 of 2): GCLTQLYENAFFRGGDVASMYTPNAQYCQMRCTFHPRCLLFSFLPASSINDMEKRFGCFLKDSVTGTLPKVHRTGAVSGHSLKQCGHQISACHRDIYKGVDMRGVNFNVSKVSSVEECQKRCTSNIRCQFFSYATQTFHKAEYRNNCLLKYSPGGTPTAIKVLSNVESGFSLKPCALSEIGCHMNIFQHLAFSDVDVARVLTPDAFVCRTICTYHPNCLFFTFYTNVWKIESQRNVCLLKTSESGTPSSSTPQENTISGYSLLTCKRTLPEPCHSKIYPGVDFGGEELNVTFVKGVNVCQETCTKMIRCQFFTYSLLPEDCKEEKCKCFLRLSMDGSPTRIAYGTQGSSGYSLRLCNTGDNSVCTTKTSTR
Sequence of human plasma kallikrein (active form, purified from human plasma and activated with factor XIIa) (human) (P03952 391-638 limits assumed, chain 2 of 2): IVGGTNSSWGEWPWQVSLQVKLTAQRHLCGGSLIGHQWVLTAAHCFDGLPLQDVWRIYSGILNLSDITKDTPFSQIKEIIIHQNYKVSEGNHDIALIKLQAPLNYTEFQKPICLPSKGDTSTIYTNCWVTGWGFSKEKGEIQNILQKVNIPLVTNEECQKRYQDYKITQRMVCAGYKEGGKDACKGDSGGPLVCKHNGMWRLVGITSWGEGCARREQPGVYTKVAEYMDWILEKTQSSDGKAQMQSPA

[2] = target: pKal catalytic domain Mutant 4 (human) (UniProt P03952); test: Ki,app, equilibrium, fluorogenic substrate
Sequence of pKal catalytic domain Mutant 4 (human) (P03952 other isoform, or with tags, fused parts or gaps mutant): as the sequence (P03952 391-638 limits assumed, chain 2 of 2) above, with S7A, S8A counted along it

Binder	ELISA (T/B) [1]	Ki [2] [nM]
B1	1.5	–
B2	2	–
B3	–	0.25
